Measurements: patent publication US12319739 (F STAR DELTA, dated 2025)
Numbering of substitutions follows the chain as printed.

B1: FS22-172-003-AA/FS28-024 (bispecific antibody, human IgG1, kappa, L234A L235A, V domains shown)
VH: EVQLLESGGGLVQPGGSLRLSCAASGFTLSYSSMSWVRQAPGKGLEWVSFITPSTGYTHYADSVKGRFTISRDNSKNTLYLQMNSLRAEDTAVYYCARRALTFDYWGQGTLVTVSS
VL: EIVLTQSPGTLSLSPGERATLSCRASQSVSSSYLAWYQQKPGQAPRLLIYGASSRATGIPDRFSGSGSGTDFTLTISRLEPEDFAVYYCQQASSYPLTFGQGTKVEIKR
notes: IgG1 mAb^2 with LALA; also called FS28-024 in CD137 mAb^2 format
B2: FS22-172-003-AA/FS28-024-051 (bispecific antibody, human IgG1, kappa, L234A L235A, V domains shown)
VH: B1 VH with T102I
VL: B1 VL
notes: IgG1 mAb^2 with LALA
B3: FS22-172-003-AA/FS28-024-053 (bispecific antibody, human IgG1, kappa, L234A L235A, V domains shown)
VH: B1 VH with T102V
VL: B1 VL
notes: IgG1 mAb^2 with LALA
B4: FS22-172-003-AA/FS28-256 (bispecific antibody, human IgG1, kappa, L234A L235A, V domains shown)
VH: EVQLLESGGGLVQPGGSLRLSCAASGFTFTNTYMSWVRQAPGKGLEWVSNISPTYSTTNYADSVKGRFTISRDNSKNTLYLQMNSLRAEDTAVYYCARYNSYQGGLDYWGQGTLVTVSS
VL: B1 VL with A92S, S93Y, S94Y, L97I
notes: IgG1 mAb^2 with LALA
B5: FS22-172-003-AA/FS28-256-012 (bispecific antibody, human IgG1, kappa, L234A L235A, V domains shown)
VH: B4 VH with N31H, S75N, S101A, Q103H, G104A, G105A
VL: B1 VL with A92S, S93Y, S94Y, L97I
notes: IgG1 mAb^2 with LALA
B6: FS22-172-003-AA/FS28-256-021 (bispecific antibody, human IgG1, kappa, L234A L235A, V domains shown)
VH: B4 VH with N31H, S75N, S101A, Q103H, G104A, G105A
VL: B1 VL with A92H, S93N, S94Q, L97N
notes: IgG1 mAb^2 with LALA
B7: FS22-172-003-AA/FS28-256-023 (bispecific antibody, human IgG1, kappa, L234A L235A, V domains shown)
VH: B4 VH with N31Q, S101A, G104I
VL: B1 VL with A92H, S93N, S94Q, L97N
notes: IgG1 mAb^2 with LALA
B8: FS22-172-003-AA/FS28-185 (bispecific antibody, human IgG1, kappa, L234A L235A, V domains shown)
VH: EVQLLESGGGLVQPGGSLRLSCAASGFTFTTSAMSWVRQAPGKGLEWVSRINPYEGETNYADSVKGRFTISRDNSKNTLYLQMNSLRAEDTAVYYCARGWSIATYYKSAMDYWGQGTLVTVSS
VL: EIVLTQSPGTLSLSPGERATLSCRASQSVSSSYLAWYQQKPGQAPRLLIYGASSRATGIPDRFSGSGSGTDFTLTISRLEPEDFAVYYCQQSSYSAPVTFGQGTKVEIKR
notes: IgG1 mAb^2 with LALA; also called FS28-185 in CD137 mAb^2 format
B9: FS22-172-003-AA/FS28-256-005 (bispecific antibody, human IgG1, kappa, L234A L235A, V domains shown)
VH: B4 VH with N31E
VL: B1 VL with S93L, S94G, L97H
notes: IgG1 mAb^2 with LALA
B10: FS22-172-003-AA/FS28-256-014 (bispecific antibody, human IgG1, kappa, L234A L235A, V domains shown)
VH: B4 VH with N31D, S101A, Q103A, G104A
VL: B1 VL with A92S, S93Y, S94Y, L97I
notes: IgG1 mAb^2 with LALA
B11: FS22-172-003-AA/FS28-256-018 (bispecific antibody, human IgG1, kappa, L234A L235A, V domains shown)
VH: B4 VH with N31Q, S101A, G104I
VL: B1 VL with A92S, S93Y, S94Y, L97I
notes: IgG1 mAb^2 with LALA

Target: T1, cMSLN-His-Avi (cynomolgus, single biotin on the Avi tag in the biotinylated form)
T1 construct: Monomeric; also called cyno MSLN-His-Avi; cMSLN-Avi-His
T1 chain: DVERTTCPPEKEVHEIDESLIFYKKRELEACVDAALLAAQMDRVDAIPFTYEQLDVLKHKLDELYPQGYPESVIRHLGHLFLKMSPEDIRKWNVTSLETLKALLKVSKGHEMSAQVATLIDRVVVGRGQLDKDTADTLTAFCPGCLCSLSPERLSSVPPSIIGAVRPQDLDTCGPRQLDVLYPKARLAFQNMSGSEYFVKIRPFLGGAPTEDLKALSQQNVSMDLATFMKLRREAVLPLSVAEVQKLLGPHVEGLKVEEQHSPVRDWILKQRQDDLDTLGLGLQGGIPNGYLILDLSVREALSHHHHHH
Test: SPR, mAb2 captured on Protein G, cMSLN-His-Avi in solution
Description: (§1) The association time was 5 min and the dissociation time was 5 min. Running buffer was HBS-EP (GE Healthcare BR100188). Flow cells were regenerated by injecting Glycine-HCl pH2.1 at a flow rate of 30 μl/min for 15 seconds. The data was analysed as described in Example 7.1.

| Binder | Kd [nM] |
| --- | --- |
| B1 | 170 |
| B2 | 153 |
| B3 | 166 |
| B4 | 848 |
| B5 | 712 |
| B6 | 14.2 |
| B7 | 44.2 |
| B8 | 294 |

Target: T2, endogenous cell surface human MSLN (human, UniProt Q13421 296-598)
T2 construct: whole, on cells; The cell line is named under assay; also called cell-surface MSLN on NCI-H226, OVCAR-3 and AsPC-1 cells
Test: flow cytometry, NCI-H226 cells + 20 nM soluble MSLN
Description: (§2) To confirm binding to cell surface MSLN, mAb² listed in Table 9 were analysed for binding to endogenous cell surface MSLN on the human lung cancer cell line NCI-H226. In addition, and because MSLN can be found in blood in a shed soluble form, there is a risk that this circulating MSLN might affect exposure and ultimately potency of our mAb². To confirm that presence of soluble MSLN has minimal impact, additional binding experiments to NCI-H226 cells were performed in the presence of 20 nM soluble MSLN which is 10-20 times the level of soluble MSLN found to be of diagnostic value for defining malignant mesothelioma and lung cancer patients as MSLN positive (Cui et al., 2014). Briefly, NCI-H226 cells (ATCC CRL-5826) were harvested from T175 cell culture flasks using Accutase (Gibco, A11105-01).
(§3) In both cases, cells were centrifuged at 1200 rpm for 3 min and resuspended in ice cold FACS buffer made up of DPBS (Life Technologies, 14190169) and 1% BSA (Sigma-Aldrich, A7906) at 2×10⁶ cells/ml and 50 μl per well was seeded in a 96-well V-bottom plate (Costar, 3894). All antibodies tested were diluted in FACS buffer in 120 μl at a concentration range of 0.01-200 nM (4-fold dilutions). The NCI-H226 cells were then centrifuged, supernatant removed and cells resuspended in 100 μl of each mAb dilution and incubated at 4° C. for 45 min. Cells were washed twice by centrifugation with 150 μl FACS buffer, resuspended in 100 μl containing goat anti-human IgG (γ-chain specific) F(ab')2 fragment-R-Phycoerythrin antibody (Sigma, P8047) diluted 1:1000 in FACS buffer and incubated at 4° C. for 45 min. The cells were washed once with 150 μl FACS buffer and then with 150 μl DPBS, resuspended in 150 μl DPBS containing DAPI (Biotium, 40043) at 1:10.000 and read on the BDCantoII or iQue (Intellicyt).

T2 sequence (Q13421 other isoform, or with tags, fused parts or gaps limits assumed): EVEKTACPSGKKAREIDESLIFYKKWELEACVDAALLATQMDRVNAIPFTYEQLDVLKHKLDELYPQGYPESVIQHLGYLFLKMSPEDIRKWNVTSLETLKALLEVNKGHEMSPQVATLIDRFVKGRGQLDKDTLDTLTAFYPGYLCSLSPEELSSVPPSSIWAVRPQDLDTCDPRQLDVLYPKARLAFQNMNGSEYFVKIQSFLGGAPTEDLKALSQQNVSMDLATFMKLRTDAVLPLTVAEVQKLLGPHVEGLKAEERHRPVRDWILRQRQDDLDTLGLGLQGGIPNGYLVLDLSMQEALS

| Binder | EC50 [nM] | Emax (MFI) |
| --- | --- | --- |
| B1 | 3.05 | 792000 |
| B2 | 3.06 | 798000 |
| B3 | 2.77 | 788000 |
| B4 | 52.9 | 200000 |
| B9 | 0.856 | 424000 |
| B5 | 6.36 | 486000 |
| B10 | 1.09 | 514000 |
| B11 | 4.09 | 357000 |
| B6 | 9.49 | 774000 |
| B7 | 2.13 | 625000 |
| B8 | 28.4 | 4930 |

Target: T2, endogenous cell surface human MSLN
Test: flow cytometry, NCI-H226 cells
Description: as §2, §3

| Binder | EC50 [nM] | Emax (MFI) |
| --- | --- | --- |
| B1 | 0.389 | 773000 |
| B2 | 0.477 | 768000 |
| B3 | 0.579 | 783000 |
| B4 | 47.1 | 174000 |
| B9 | 0.729 | 441000 |
| B5 | 5.7 | 516000 |
| B10 | 0.727 | 476000 |
| B11 | 3.6 | 348000 |
| B6 | 4.02 | 689000 |
| B7 | 1.29 | 618000 |
| B8 | 22.9 | 4930 |

Target: human CD137 on primary human CD8+ T cells (human, UniProt Q07011 24-255)
Test: cell-based or functional assay

Sequence of human CD137 on primary human CD8+ T cells (Q07011 24-255): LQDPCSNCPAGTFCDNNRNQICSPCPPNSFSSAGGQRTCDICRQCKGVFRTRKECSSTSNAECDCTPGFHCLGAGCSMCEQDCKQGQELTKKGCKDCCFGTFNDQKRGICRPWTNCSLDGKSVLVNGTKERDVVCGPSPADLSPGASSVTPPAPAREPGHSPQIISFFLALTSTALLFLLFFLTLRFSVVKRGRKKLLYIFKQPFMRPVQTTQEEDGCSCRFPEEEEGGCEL

| Binder | Emax (IL-2 pg/ml), NCI-H226 co-culture, Donor A [pg/mL] | Emax (IL-2 pg/ml), NCI-H226 co-culture, Donor B [pg/mL] | IL-2 release EC50, NCI-H226 co-culture, Donor A [nM] | IL-2 release EC50, NCI-H226 co-culture, Donor B [nM] |
| --- | --- | --- | --- | --- |
| B1 | 1120 | 1380 | 0.02 | 0.03 |
| B2 | 1130 | 1800 | 0.08 | 0.04 |
| B3 | 1010 | 1440 | 0.07 | 0.04 |
| B4 | 1260 | 8590 | 34 | 22.2 |
| B9 | 1100 |  | 1.63 |  |
| B5 | 1550 | 1100 | 1.56 | 1.67 |
| B10 | 1360 |  | 3.58 |  |
| B11 | 1260 | 903 | 3.22 | 3.71 |
| B6 | 1780 | 1000 | 0.06 | 0.04 |
| B7 | 1960 | 975 | 0.64 | 0.23 |

Target: T3, hMSLN-His-Avi (human, UniProt Q13421 296-598, single biotin on the Avi tag in the biotinylated form)
T3 construct: Monomeric; also called human MSLN-His-Avi; hMSLN-Avi-His
Test: SPR, mAb2 captured on Protein G, hMSLN-His-Avi in solution
Description: as §1

T3 sequence (Q13421 other isoform, or with tags, fused parts or gaps): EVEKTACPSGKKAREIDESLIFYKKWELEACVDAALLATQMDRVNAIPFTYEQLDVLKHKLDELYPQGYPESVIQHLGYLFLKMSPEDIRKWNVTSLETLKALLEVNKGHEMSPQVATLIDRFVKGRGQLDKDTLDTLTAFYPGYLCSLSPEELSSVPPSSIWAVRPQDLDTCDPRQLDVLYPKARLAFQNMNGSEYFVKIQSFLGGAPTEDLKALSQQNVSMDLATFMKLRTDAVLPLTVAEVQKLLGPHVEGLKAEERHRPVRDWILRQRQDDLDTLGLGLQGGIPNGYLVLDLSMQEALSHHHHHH

| Binder | Kd [nM] |
| --- | --- |
| B1 | 46.5 |
| B2 | 42.4 |
| B3 | 46.4 |
| B4 | 1210 |
| B5 | 809 |
| B6 | 19.6 |
| B7 | 56.2 |
| B8 | 248 |

Target: T3, hMSLN-His-Avi
Test: SPR, hMSLN-His-Avi immobilised ~100 RU, mAb2 injected
Description: (§4) 7.1 Binding of CD137/MSLN mAb2 to Human MSLN Under Avid Conditions—Antigen Capture Method Binding of all mAb^2 to MSLN immobilised on a BIAcore chip was tested to determine the binding affinity to human MSLN under avid conditions, where a high concentration of immobilised antigen is available to allow the antibody to bind avidly. […] The association time was 5 min and the dissociation time was 10 min. Running buffer was HBS-EP (GE Healthcare BR100188). Flow cells were regenerated by injecting Glycine-HCl pH1.5 at a flow rate of 30 μl/min for 30 seconds. Data were analysed by double referencing against a flow cell which was intentionally left blank (no antigen coating). The binding kinetics were fitted with a 1:1 Langmuir model to generate binding association (k_a) and dissociation (k_d) rates. Equilibrium binding constants (K_D) were calculated by dividing the dissociation rate by the association rate for each sample. Data analysis was performed with BiaEvaluation software version 3.2.

| Binder | Kd [nM] |
| --- | --- |
| B1 | 0.39 |
| B2 | 0.4 |
| B3 | 0.42 |
| B4 | 36 |
| B5 | 3.12 |
| B6 | 2.3 |
| B7 | 3.09 |
| B8 | 50.5 |

Target: T3, hMSLN-His-Avi
Test: ratio of SPR KDs
Description: as §4, §1

| Binder | KD ratio in solution/immobilised human MSLN |
| --- | --- |
| B1 | 119 |
| B2 | 105 |
| B3 | 111 |
| B4 | 34 |
| B5 | 259 |
| B6 | 9 |
| B7 | 18 |
| B8 | 5 |
